Source: patent US20240382610A1 (TALLAC THERAPEUTICS, published 2024)

Assays:
[1] = molecular target: T1, Human nectin-4 ECD-6His (TNT-175) (human, UniProt Q96NY8 32-349); assay: competition ELISA; nectin-4 ECD premixed with TNT212, captured by the coat antibody; % of signal without premix antibody
T1 construct: the entry holds the extracellular domain with the C-terminal 6His tag
T1 sequence: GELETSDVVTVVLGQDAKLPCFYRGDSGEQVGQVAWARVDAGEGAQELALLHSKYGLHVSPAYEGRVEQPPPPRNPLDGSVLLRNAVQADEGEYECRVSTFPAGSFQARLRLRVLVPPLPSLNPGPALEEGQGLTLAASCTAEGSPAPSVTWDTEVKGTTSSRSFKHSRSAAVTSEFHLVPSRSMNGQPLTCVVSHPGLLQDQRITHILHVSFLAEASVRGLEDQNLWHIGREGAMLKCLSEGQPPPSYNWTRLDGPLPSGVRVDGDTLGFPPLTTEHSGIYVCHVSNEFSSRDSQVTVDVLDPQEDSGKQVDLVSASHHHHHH
Experimental: (§1) Competition experiments of nectin-4 antibodies. ELISA plates were coated overnight at 4° C. with goat anti-mouse IgG at […] in PBS. […] As positive control, nectin-4 was diluted at same concentrations without a premix antibody. Two wells per plate were allocated for diluent only as negative/background control. Plates were washed as previously, 50 μL/well of premix was added to each plate and incubated for one hour. Plates were washed then incubated at room temperature for one hour with Rabbit anti 6× HIS HRP diluted 1:4,000 in diluent. Plates were washed once more and incubated at room temperature for 20 minutes with 50 μL/well of ABTS substrate. […] Binding was measured as an Optical Density (O.D.) value normalized to background and calculated as a percentage of positive control at the lowest nectin-4 dilution for greatest resolution.

[2] = molecular target: T1, Human nectin-4 ECD-6His (TNT-175); assay: competition ELISA; nectin-4 ECD premixed with TNT206, captured by the coat antibody; % of signal without premix antibody
Experimental: as §1

[3] = molecular target: T1, Human nectin-4 ECD-6His (TNT-175); assay: competition ELISA; nectin-4 ECD premixed with TNT202, captured by the coat antibody; % of signal without premix antibody
Experimental: as §1

[4] = molecular target: T1, Human nectin-4 ECD-6His (TNT-175); assay: SPR ProteOn, mAb on protein A
Experimental: Initial testing of binding of nectin-4 antibodies to nectin-4. […] Biotinylated protein A (15 μg/mL) was immobilized to the surface of an NLC chip. 30 nM of purified mAb supernatant was diluted in PBS-T and captured over the protein A surface. Serial dilutions of human nectin-4 were injected over the mAb-coated chips, and binding kinetics were determined. Chips were regenerated using 4:1 v/v of IgG elution butter/4M NaCl.

[5] = molecular target: T1, Human nectin-4 ECD-6His (TNT-175); assay: competition ELISA; nectin-4 ECD premixed with TNT210, captured by the coat antibody; % of signal without premix antibody
Experimental: as §1

[6] = molecular target: T1, Human nectin-4 ECD-6His (TNT-175); assay: competition ELISA; nectin-4 ECD premixed with TNT201, captured by the coat antibody; % of signal without premix antibody
Experimental: as §1

human nectin-4 on cells = molecular target: T2, human nectin-4 on cells (human, UniProt Q96NY8 32-510); assay: flow cytometry MFI, MNK74 (nectin-4 positive) over AGS (negative)
T2 construct: whole, on cells; also called PVRL4
T2 sequence (looked up): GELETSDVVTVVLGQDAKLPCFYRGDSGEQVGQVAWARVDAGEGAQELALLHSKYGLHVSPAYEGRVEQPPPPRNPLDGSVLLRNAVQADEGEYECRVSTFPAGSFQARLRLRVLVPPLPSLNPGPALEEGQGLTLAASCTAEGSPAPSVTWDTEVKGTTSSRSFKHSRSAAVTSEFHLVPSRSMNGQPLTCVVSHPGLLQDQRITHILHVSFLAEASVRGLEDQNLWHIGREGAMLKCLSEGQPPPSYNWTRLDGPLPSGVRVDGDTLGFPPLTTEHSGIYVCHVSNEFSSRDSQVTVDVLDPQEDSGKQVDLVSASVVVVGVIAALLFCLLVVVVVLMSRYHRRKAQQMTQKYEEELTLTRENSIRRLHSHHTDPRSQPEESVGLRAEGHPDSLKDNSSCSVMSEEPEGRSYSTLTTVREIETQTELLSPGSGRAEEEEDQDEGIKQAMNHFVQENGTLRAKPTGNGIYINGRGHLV
Experimental: Cell binding of nectin-4 antibodies. Cell binding of the nectin-4 antibodies was also assessed. MNK74 (nectin-4 positive) and AGS (nectin-4 negative) cells were obtained from ATCC and cultured according to their protocols. Cells were detached with TrypLE (Gibco) and washed by centrifugation for five minutes at 400×g with FACS buffer (PBS+2% FBS). Cells were resuspended in FACS buffer, plated in 96-well format (0.25 e6/well) then pelleted by centrifugation for five minutes at 400×g. Cells were stained at 4° C. in Fixable Viability Dye eFluor 506 (eBioscience) diluted 1:4,000 in PBS. […] Cells were centrifuged, washed once in FACS buffer and stained at 4° C. with Goat F(ab′)₂ anti-Mouse IgG APC (Southern Biotech) diluted 1:400 in FACS buffer for 30 minutes or appropriate anti-human IgG. Cells were centrifuged, washed twice and fixed in 0.5% paraformaldehyde. Cells were analyzed on Attune NxT Flow Cytometer (Thermo Fisher), with subsequent data analysis by Flowjo 10.7 (BD). Dead cells were excluded by gating on the eFluor 506-negative population. […] Binding was assessed by median fluorescent intensity.

[7] = molecular target: T1, Human nectin-4 ECD-6His (TNT-175); assay: competition ELISA; nectin-4 ECD premixed with TNT204, captured by the coat antibody; % of signal without premix antibody
Experimental: as §1

[8] = molecular target: T1, Human nectin-4 ECD-6His (TNT-175); assay: competition ELISA; nectin-4 ECD premixed with TNT203, captured by the coat antibody; % of signal without premix antibody
Experimental: as §1

[9] = molecular target: T1, Human nectin-4 ECD-6His (TNT-175); assay: competition ELISA; nectin-4 ECD premixed with TNT205, captured by the coat antibody; % of signal without premix antibody
Experimental: as §1

[10] = molecular target: T1, Human nectin-4 ECD-6His (TNT-175); assay: competition ELISA; nectin-4 ECD premixed with TNT209, captured by the coat antibody; % of signal without premix antibody
Experimental: as §1

[11] = molecular target: T1, Human nectin-4 ECD-6His (TNT-175); assay: competition ELISA; nectin-4 ECD premixed with TNT208, captured by the coat antibody; % of signal without premix antibody
Experimental: as §1

[12] = molecular target: T1, Human nectin-4 ECD-6His (TNT-175); assay: competition ELISA; nectin-4 ECD premixed with TNT207, captured by the coat antibody; % of signal without premix antibody
Experimental: as §1

[13] = molecular target: T1, Human nectin-4 ECD-6His (TNT-175); assay: competition ELISA; nectin-4 ECD premixed with TNT211, captured by the coat antibody; % of signal without premix antibody
Experimental: as §1

B1: TNT-191 (antibody, mouse IgG2a, kappa)
heavy: EVQLLESGGGVVQPGRSLRLSCAASGFTFSSYGMHWVRQAPGKGLEWVAVISYDGSNKYYADSVKGRFTISRDNSKNTLYLQMNSLRAEDTAVYYCAKSSYYDYVWGSYRYTDAFDIWGQGTMVTVSSAKTTAPSVYPLAPVCGDTTGSSVTLGCLVKGYFPEPVTLTWNSGSLSSGVHTFPAVLQSDLYTLSSSVTVTSSTWPSQSITCNVAHPASSTKVDKKIEPRGPTIKPCPPCKCPAPNLLGGPSVFIFPPKIKDVLMISLSPIVTCVVVDVSEDDPDVQISWFVNNVEVHTAQTQTHREDYNSTLRVVSALPIQHQDWMSGKEFKCKVNNKDLPAPIERTISKPKGSVRAPQVYVLPPPEEEMTKKQVTLTCMVTDFMPEDIYVEWTNNGKTELNYKNTEPVLDSDGSYFMYSKLRVEKKNWVERNSYSCSVVHEGLHNHHTTKSFSRTPGRPQGFGPP
light: EIVLTQSPATLSLSPGERATLSCRASQSVSSSYLAWYQQKPGQAPRLLIYGASSRATGIPDRFSGSGSGTDFTLTISRLEPEDFAVYYCQQYNNWWTFGQGTKVDIKRADAAPTVSIFPPSSEQLTSGGASVVCFLNNFYPKDINVKWKIDGSERQNGVLNSWTDQDSKDSTYSMSSTLTLTKDEYERHNSYTCEATHKTSTSPIVKSFNRNEC
- % of Positive [1]: 3%
- % of Positive [2]: 11.4%
- % of Positive [3]: 4.8%
- Kd [4]: 4.3 nM
- koff [4]: 0.000983 s⁻¹
- kon [4]: 229000 M⁻¹ s⁻¹
- % of Positive [5]: 2.4%
- % of Positive [6]: 1.5%
- Fold-change of binding to MNK74 compared to control AGS (human nectin-4 on cells): 5 fold
- % of Positive [7]: 4.5%
- % of Positive [8]: 32.7%
- % of Positive [9]: 54.8%
- % of Positive [10]: 30.4%
- % of Positive [11]: 5.3%
- % of Positive [12]: 2.5%
- % of Positive [13]: 24.6%

B2: TNT-192 (antibody, mouse IgG2a, kappa)
heavy: EVQLLESGGGVVQPGRSLRLSCAASGFTFSSYGMHWVRQAPGKGLEWVAVISYDGSNKYYADSVKGRFTISRDNSKNTLYLQMNSLRAEDTAVYYCAKDYGYNWNFFDYWGQGTLVTVSSAKTTAPSVYPLAPVCGDTTGSSVTLGCLVKGYFPEPVTLTWNSGSLSSGVHTFPAVLQSDLYTLSSSVTVTSSTWPSQSITCNVAHPASSTKVDKKIEPRGPTIKPCPPCKCPAPNLLGGPSVFIFPPKIKDVLMISLSPIVTCVVVDVSEDDPDVQISWFVNNVEVHTAQTQTHREDYNSTLRVVSALPIQHQDWMSGKEFKCKVNNKDLPAPIERTISKPKGSVRAPQVYVLPPPEEEMTKKQVTLTCMVTDFMPEDIYVEWTNNGKTELNYKNTEPVLDSDGSYFMYSKLRVEKKNWVERNSYSCSVVHEGLHNHHTTKSFSRTPGRPQGFGPP
light: DIVMTQSPSSLSASVGDRVTITCRASQGISNYLAWYQQKPGKVPKLLIYAASTLQSGVPSRFSGSGSGTDFTLTISSLQPEDVATYYCQKYNSAPYTFGQGTKVEIKRADAAPTVSIFPPSSEQLTSGGASVVCFLNNFYPKDINVKWKIDGSERQNGVLNSWTDQDSKDSTYSMSSTLTLTKDEYERHNSYTCEATHKTSTSPIVKSFNRNEC
- % of Positive [1]: 2.2%
- % of Positive [2]: 6%
- % of Positive [3]: 3.1%
- Kd [4]: 9.14 nM
- koff [4]: 0.00294 s⁻¹
- kon [4]: 322000 M⁻¹ s⁻¹
- % of Positive [5]: 1.1%
- % of Positive [6]: 1.1%
- Fold-change of binding to MNK74 compared to control AGS (human nectin-4 on cells): 4.5 fold
- % of Positive [7]: 2.9%
- % of Positive [8]: 23.3%
- % of Positive [9]: 36.9%
- % of Positive [10]: 20.5%
- % of Positive [11]: 2.3%
- % of Positive [12]: 1.5%
- % of Positive [13]: 17.5%
